Laboratory results from US20250296992A1 (Genmab, published 2025).

How the values were obtained:
[1] = target: T1, human SLITRK6 on cells (human, UniProt Q9H5Y7 27-841); experiment: flow cytometry on 293F-SLITRK6-C9 cells
T1 construct: whole, on cells
Procedure: (§1) The binding activity of mAbs and ADCs was evaluated by flow cytometer (Beckman, Cytoflex). Specifically, cells were incubated with 50 μL of mAbs or ADCs in series dilutions in PBS containing 1% BSA at 4° C. for 30 min. The cells were washed twice with PBS containing 1% BSA, stained with PE-conjugated anti human Fc in PBS containing 1% BSA and then incubated at 4° C. for 20 min. After that the cells were washed twice with PBS and analyzed by a flow cytometer.

[2] = target: T1, human SLITRK6 on cells; experiment: flow cytometry on RT4 cells
Procedure: as §1

[3] = target: T1, human SLITRK6 on cells; experiment: flow cytometry on SW780 cells
Procedure: as §1

[4] = target: T1, human SLITRK6 on cells; experiment: cell-based or functional assay
[5] = target: T1, human SLITRK6 on cells; experiment: flow cytometry on CHP-212 cells
Procedure: as §1

[6] = target: T2, cynomolgus monkey SLITRK6 extracellular domain linked to his tag (cynomolgus monkey, UniProt G7PVK4 27-608); experiment: ELISA, coated antigen
T2 construct: extracellular domain; also called cynoSLITRK6; Cyno SLITRK6; not shown: his tag

[7] = target: T3, human SLITRK6 extracellular domain linked to his tag (human, UniProt Q9H5Y7 27-608); experiment: ELISA, coated antigen
T3 construct: extracellular domain; also called huSLITRK6; Hu SLITRK6; not shown: his tag

[8] = target: T3, human SLITRK6 extracellular domain …; experiment: BLI binning on huSLITRK6-his; Ab1 = row antibody first, then Ab2 (competitor) = phA108
Procedure: (§2) Epitope binning was characterized by the bio-layer interferometry (BLI). 100 nM of human SLITRK6′ extracellular domain linked to his tag was immobilized on anti-his biosensor tips (Fortebio). The sensors were rinsed with the buffer (50 mM Tris-AcOH, pH 6 or 7.5, 0.05% v/v surfactant P20) for 30 seconds to remove the unbound molecules, then dipped in the 100 nM of antibody 1 solutions for 180 seconds and interspersed by a rinsing step in the buffer solution for 300 seconds. After that, the sensors were dipped in the 100 nM of antibody 2 solutions. The epitope cluster was calculated using ForteBio Data Acquisition 6.3 software.

[9] = target: T3, human SLITRK6 extracellular domain …; experiment: BLI binning on huSLITRK6-his; Ab1 = row antibody first, then Ab2 (competitor) = hu14G1-03
Procedure: as §2

[10] = target: T3, human SLITRK6 extracellular domain …; experiment: BLI binning on huSLITRK6-his; Ab1 = row antibody first, then Ab2 (competitor) = hu1H2-03
Procedure: as §2

[11] = target: T1, human SLITRK6 on cells; experiment: flow cytometry on CHP-212 cells; remark: listed apart in the source
Procedure: (§3) The binding activity of mAbs was evaluated by flow cytometer (Beckman, Cytoflex). Specifically, cells were incubated with 50 μL of mAbs or ADCs in series dilutions in PBS containing 1% BSA at 4° C. for 30 minutes. The cells were washed twice with PBS containing 1% BSA, stained with PE-conjugated anti human Fc in PBS containing 1% BSA and then incubated at 4° C. for 20 min. After that the cells were washed twice with PBS and analyzed by a flow cytometer.

[12] = target: T2, cynomolgus monkey SLITRK6 extracellular …; experiment: BLI; antigen ECD-his on anti-his tips, antibody as analyte; 1:1 fit;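 further: antibody at several concentrations, 180 s association then 300 s dissociation in Tris buffer at pH 6 or 7.5, rate constants from global fitting, KD computed as koff/kon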
Procedure: (§4) Binding kinetic of antibody-antigen was characterized by the bio-layer interferometry (BLI). 100 nM of SLITRK6′ extracellular domain linked to his tag was immobilized on anti-his biosensor tips (Fortebio). The sensors were rinsed with the buffer (50 mM Tris-AcOH, pH 6 or 7.5, 0.05% v/v surfactant P20) for 10 min to remove the unbound molecules, then dipped in the antibody solutions at different concentrations for 180 seconds and interspersed by a rinsing step in the buffer solution for 300 seconds. Binding affinity was calculated using ForteBio Data Acquisition 6.3 software (ForteBio) and was derived by fitting the kinetic data to a 1:1 Langmuir binding model utilizing global fitting algorithms. The dissociation or association equilibrium constant KD was calculated from the binding rate constants as KD=koff/kₒₙ(where koff and kₒₙ represent the dissociation kinetic constant and the association kinetic constant, respectively).

[13] = target: T3, human SLITRK6 extracellular domain …; experiment: as above
Procedure: as §4

[14] = target: T1, human SLITRK6 on cells; experiment: flow cytometry on RT112/84 cells
Procedure: as §3

[15] = target: T3, human SLITRK6 extracellular domain …; experiment: BLI binning on huSLITRK6-his; Ab1 = row antibody first, then Ab2 (competitor) = Sirtratumab
Procedure: as §2

[16] = target: T1, human SLITRK6 on cells; experiment: flow cytometry on SCC-4 cells
Procedure: as §3

[17] = target: T3, human SLITRK6 extracellular domain …; experiment: BLI binning on huSLITRK6-his; Ab1 = row antibody first, then Ab2 (competitor) = phA290
Procedure: as §2

[18] = target: T3, human SLITRK6 extracellular domain …; experiment: BLI binning on huSLITRK6-his; Ab1 = row antibody first, then Ab2 (competitor) = hu1H2-13
Procedure: as §2

[19] = target: T1, human SLITRK6 on cells; experiment: flow cytometry on 293F-huSLITRK6-C9 cells
Procedure: The binding activity of mAbs was evaluated by flow cytometer (Beckman, Cytoflex). Specifically, cells were incubated with 50 μL of mAbs or ADCs in series dilutions in PBS containing 1% BSA at 4° C. for 30 min. The cells were washed twice with PBS containing 1% BSA, stained with PE-conjugated anti human Fc in PBS containing 1% BSA and then incubated at 4° C. for 20 min. After that the cells were washed twice with PBS and analyzed by a flow cytometer.

[20] = target: T1, human SLITRK6 on cells; experiment: flow cytometry on RT4 cells; remark: listed apart in the source
Procedure: as §3

[21] = target: T1, human SLITRK6 on cells; experiment: flow cytometry on SW780 cells; remark: listed apart in the source
Procedure: as §3

Row | Binder | EC50 [1] [nM] | EC50 [2] [nM] | EC50 [3] [nM] | EC50 [5] [nM] | EC50 [6] [nM] | EC50 [7] [nM] | epitope binning signal [8] | epitope binning signal [9] | epitope binning signal [10] | EC50 [11] [nM] | Kd [12] [nM] | koff [12] [s⁻¹] | kon [12] [M⁻¹ s⁻¹] | Kd [13] [nM] | koff [13] [s⁻¹] | kon [13] [M⁻¹ s⁻¹] | EC50 [14] [nM] | epitope binning signal [15] | IC50 (nM), cytotoxicity on CHP-212 cells (Cell Titer-Glo) [4] [nM] | IC50 (nM), cytotoxicity on RT4 cells (Cell Titer-Glo) [4] [nM] | other results
1 | hu1H2-03-LD038 (8) (antibody, V domains shown, drug-linker LD038 on cysteines freed by TCEP reduction, DAR 8.0; positions not given, also called hu1H2-03 ADC) VH: EVQLVESGGGLVQPGGSLRLSCAASGFTFSDYGLHWVRQAPGKGLEWVSYISSGSSTVYFADTLKGRFTISRDNAKNSLYLQMNSLRAEDTAVYYCTRGTWYFDVWGRGTLVTVSS VL: DIQMTQSPSSLSASVGDRVTITCRTSENIHSYLAWYQQKPGKSPQLLVYNAKTLADGVPSRFSGSGSGTDYTLTISSLQPEDFGTFYCQHFWTTSRTFGGGTKVEIK | 1.35 | 0.47 | 0.44 | 0.4 | – | – | – | – | – | – | – | – | – | – | – | – | – | – | 0.83 | 7.02 | –
2 | hu1H2-03 (antibody, V domains shown, see m20) VH: EVQLVESGGGLVQPGGSLRLSCAASGFTFSDYGLHWVRQAPGKGLEWVSYISSGSSTVYFADTLKGRFTISRDNAKNSLYLQMNSLRAEDTAVYYCTRGTWYFDVWGRGTLVTVSS VL: DIQMTQSPSSLSASVGDRVTITCRTSENIHSYLAWYQQKPGKSPQLLVYNAKTLADGVPSRFSGSGSGTDYTLTISSLQPEDFGTFYCQHFWTTSRTFGGGTKVEIK | 1.33 | 0.36 | 0.44 | 0.24 | 0.05 | 0.04 | 0.304 | 0.0077 | 0.0113 | 0.22 | 1.27 | 0.000444 | 348000 | 0.92 | 0.000441 | 480000 | 0.23 | 0.299 | – | – | EC50 [16]: 0.27 nM; epitope binning signal [17]: 0.299; epitope binning signal [18]: 0.0122; EC50 [19]: 1.33 nM; EC50 [20]: 0.28 nM; EC50 [21]: 0.41 nM
3 | hu14G1-03-LD038 (8) (antibody, V domains shown, drug-linker LD038 on cysteines freed by TCEP reduction, DAR 8.0; positions not given, also called hu14G1-03 ADC) VH: EVQLVESGGGLVQPGGSLRLSCAASGFTFSDYGMHWVRQAPGKGLEWVSYISPGSSTIYYADTMKGRFTISRDNAKNSLYLQMNSLRAEDTAVYYCARAYGGSYWYFAVWGQGTLVTVSS VL: DIQMTQSPSSLSASVGDRVTITCRASGNIHSYLAWYQQKPGKSPQLLVYNAKTLADGVPSRFSGSGSGTDYTLTISSLQPEDFGTYYCQHFWSTPYTFGGGTKLEIK | 1.79 | 0.46 | 0.64 | 0.65 | – | – | – | – | – | – | – | – | – | – | – | – | – | – | 0.91 | 9.56 | –
4 | hu14G1-03 (antibody, V domains shown) VH: EVQLVESGGGLVQPGGSLRLSCAASGFTFSDYGMHWVRQAPGKGLEWVSYISPGSSTIYYADTMKGRFTISRDNAKNSLYLQMNSLRAEDTAVYYCARAYGGSYWYFAVWGQGTLVTVSS VL: DIQMTQSPSSLSASVGDRVTITCRASGNIHSYLAWYQQKPGKSPQLLVYNAKTLADGVPSRFSGSGSGTDYTLTISSLQPEDFGTYYCQHFWSTPYTFGGGTKLEIK | 1.77 | 0.38 | 0.62 | 0.37 | 0.04 | 0.04 | 0.323 | 0.0192 | 0.0244 | 0.33 | 0.965 | 0.000329 | 341000 | 0.212 | 8.26e-05 | 390000 | 0.35 | 0.293 | – | – | EC50 [16]: 0.44 nM; epitope binning signal [17]: 0.326; epitope binning signal [18]: 0.0268; EC50 [19]: 1.77 nM; EC50 [20]: 0.32 nM; EC50 [21]: 0.61 nM
5 | hu1H2-13-LD038 (8) (antibody, V domains shown, drug-linker LD038 on cysteines freed by TCEP reduction, DAR 8.0; positions not given, also called hu1H2-13 ADC) VH: EVQLVESGGGLVQPGGSLRLSCAASGFTFSDYGLHWVRQAPGKGLEWVAYISSGSSTVYFADTLKGRFTISRDNAKNSLYLQMNSLRAEDTAVYYCTRGTWYFDVWGRGTLVTVSS VL: DIQMTQSPSSLSASVGDRVTITCRTSENIHSYLAWYQQKPGKSPQLLVYNAKTLADGVPSRFSGSGSGTDYTLTISSLQPEDFGTFYCQHFWTTSRTFGGGTKVEIK | 1.6 | 0.38 | 0.61 | 0.5 | – | – | – | – | – | – | – | – | – | – | – | – | – | – | 0.93 | 5.06 | IC50 (nM), cytotoxicity on 293F-SLITRK6-C9 cells (Cell Titer-Glo) [4]: 0.06 nM

Further lines, with some results ahead:

Row | EC50 [1] [nM] | EC50 [2] [nM] | EC50 [3] [nM] | EC50 [5] [nM] | EC50 [6] [nM] | EC50 [7] [nM] | epitope binning signal [8] | epitope binning signal [9] | epitope binning signal [10] | EC50 [11] [nM] | Kd [12] [nM] | koff [12] [s⁻¹] | kon [12] [M⁻¹ s⁻¹] | Kd [13] [nM] | koff [13] [s⁻¹] | kon [13] [M⁻¹ s⁻¹] | EC50 [14] [nM] | epitope binning signal [15] | Binder | IC50 (nM), cytotoxicity on CHP-212 cells (Cell Titer-Glo) [4] [nM] | IC50 (nM), cytotoxicity on RT4 cells (Cell Titer-Glo) [4] [nM] | other results
6 | 1.32 | 0.27 | 0.44 | 0.22 | 0.05 | 0.07 | 0.299 | 0.0231 | 0.0288 | 0.22 | 1.36 | 0.000513 | 376000 | 0.916 | 0.00044 | 480000 | 0.17 | 0.312 | hu1H2-13 (antibody, V domains shown) VH: EVQLVESGGGLVQPGGSLRLSCAASGFTFSDYGLHWVRQAPGKGLEWVAYISSGSSTVYFADTLKGRFTISRDNAKNSLYLQMNSLRAEDTAVYYCTRGTWYFDVWGRGTLVTVSS VL: DIQMTQSPSSLSASVGDRVTITCRTSENIHSYLAWYQQKPGKSPQLLVYNAKTLADGVPSRFSGSGSGTDYTLTISSLQPEDFGTFYCQHFWTTSRTFGGGTKVEIK | – | – | EC50 [16]: 0.23 nM; epitope binning signal [17]: 0.302; epitope binning signal [18]: 0.0284; EC50 [19]: 1.32 nM; EC50 [20]: 0.27 nM; EC50 [21]: 0.45 nM
7 | 1.32 | 0.31 | 0.38 | 0.49 | – | – | – | – | – | – | – | – | – | – | – | – | – | – | Sirtratumab-LD038 (8) (antibody, V domains shown, drug-linker LD038 on cysteines freed by TCEP reduction, DAR 8.0; positions not given, also called Sirtratumab ADC) VH: QVQLVESGGGVVQPGRSLRLSCAASGFTFSSYGMHWVRQAPGKGLEWVAVIWYDGSNQYYADSVKGRFTISRDNSKNTLFLQMHSLRAEDTAVYYCARGLTSGRYGMDWGQGTTVTVSS VL: DIVMTQSPLSLPVTPGEPASISCRSSQSLLLSHGFNYLDWYLQKPGQSPQLLIYLGSSRASGVPDRFSGSGSGTDFTLKISRVEAEDVGLYYCMQPLQIPWTFGQGTKVEIK | 5.56 | 9.25 | IC50 (nM), cytotoxicity on 293F-SLITRK6-C9 cells (Cell Titer-Glo) [4]: 0.06 nM
8 | 1.09 | 0.16 | 0.29 | 0.14 | – | – | – | – | – | – | – | – | – | – | – | – | – | – | phA108-LD038 (8) (antibody, V domains shown, drug-linker LD038 on cysteines freed by TCEP reduction, DAR 8.0; positions not given, also called phA108 ADC) VH: QVQLVQSGAEVKKPGASVKVSCTASGYIFNDYYLHWVRQAPGQGLEWVGIINPSGGSPVYAQKFQGRVTMTRDTSTNTVYMELSSLRSEDTAVYYCARGMVRGVRLFDYWGQGTLVTVSA VL: EIVLTQSPATLSLSPGERATLSCRASQSVSSYLAWYQQKPGQTPRLLIYDASNRATGVPARFSGSGSGTDFTLTISSLETEDFAVYYCQQRTNWPLTFGGGTKVEIK | 2.82 | 7.29 | IC50 (nM), cytotoxicity on 293F-SLITRK6-C9 cells (Cell Titer-Glo) [4]: 0.06 nM
9 | 0.79 | 0.16 | 0.27 | 0.13 | – | – | – | – | – | – | – | – | – | – | – | – | – | – | phA290-LD038 (8) (antibody, V domains shown, drug-linker LD038 on cysteines freed by TCEP reduction, DAR 8.0; positions not given, also called phA290 ADC) VH: QVQLVQSGAEVKKPGASVKVSCKASGYTFTSYYMHWVRQAPGQGLEWMGIINPSGGSTSYAQKFQGRVTMTRDTSTSTVYMELSSLRSEDTAVYYCARGFTRYFDYWGQGTLVTVSA VL: EIVMTQSPGTLSLSPGERATLSCRASQSVSKYLAWYQQRPGQAPRLLIYDASNRATGIPARFSGSGSGTDFTLTVSSLEPEDFAVYYCQQRYNWPLTFGGGTTVEIK | 1.22 | 5.9 | –
